Square brackets hold non-standard residues; d marks the D form. Ends that are not written are not given here. sY = N[C@@H](Cc1ccc(OS(=O)(=O)O)cc1)C(=O)O
Tests used:
[1] = target: murine anti-Fy6 monoclonal antibody 2C3 (clone name NaM185-2C3) (mouse); experiment: SPR; competition: 2C3 MAb (culture supernatant diluted 40 times) incubated 1 h at room temperature with the synthetic peptides, then injected over 2000 RU of immobilised WT ECD1-nuc (nuclease in the reference cell); RU read at 90 sec; Biacore X100, CM5, HBS-EP; the pair peptide and MAb
[2] = target: T1, first extracellular domain of DARC followed by nuclease from Staphylococcus aureus (ECD1-nuc), wild type (Homo sapiens, UniProt Q16570); experiment: SPR; 2C3 MAb or 2C3 Fab immobilised by amine coupling (about 400 RU), anti-Kx2 antibody in the reference cell; ECD1-nuc as analyte at 5 concentrations; association 100 sec, dissociation 600 sec; Biacore X100, CM5, HBS-EP; 1:1 Langmuir model; conditions: both partners purified
T1 construct: Duffy Antigen Receptor for Chemokines (DARC, ACKR1), first extracellular domain (ECD1); also called WT ECD1-nuc; consensus ECD1; source: E. coli BL21, purified (Capto-S ion exchange, reversed-phase chromatography); not shown: nuclease from Staphylococcus aureus, C-terminal, kept

[3] = target: T1, first extracellular domain of DARC …; experiment: ELISA; direct: plate coated with wild-type ECD1-nuc (0.1 μg per well), 2C3 Fab diluted in TBS, 1 h at room temperature; detected with anti-Fab antiserum conjugated with alkaline phosphatase; triplicates; conditions: both partners purified
[4] = target: T2, DARC from K562 cells after deglycosylation (Homo sapiens, UniProt Q16570, oligosaccharides removed by PNG-ase F on the chip); experiment: SPR; DARC purified from K562 cells immobilised at ca. 400 RU, reference cell only activated and deactivated; 2C3 Fab as analyte; measured before and after deglycosylation on the chip with N-glycosidase; Biacore X100; conditions: both partners purified
T2 construct: Duffy Antigen Receptor for Chemokines (DARC, Atypical Chemokine Receptor 1), full length; m15 after treatment on the chip; also called deglycosylated DARC; source: K562 cells expressing DARC, purified on an immobilised anti-DARC nanobody; deglycosylated with N-glycosidase (PNG-ase F) on the sensor chip

[5] = target: T3, Duffy Antigen Receptor for Chemokines (DARC), full-length consensus, expressed in K562 cells (human) (UniProt Q16570); experiment: as above
T3 sequence (chain, N-linked oligosaccharide chains (as made in K562 cells)): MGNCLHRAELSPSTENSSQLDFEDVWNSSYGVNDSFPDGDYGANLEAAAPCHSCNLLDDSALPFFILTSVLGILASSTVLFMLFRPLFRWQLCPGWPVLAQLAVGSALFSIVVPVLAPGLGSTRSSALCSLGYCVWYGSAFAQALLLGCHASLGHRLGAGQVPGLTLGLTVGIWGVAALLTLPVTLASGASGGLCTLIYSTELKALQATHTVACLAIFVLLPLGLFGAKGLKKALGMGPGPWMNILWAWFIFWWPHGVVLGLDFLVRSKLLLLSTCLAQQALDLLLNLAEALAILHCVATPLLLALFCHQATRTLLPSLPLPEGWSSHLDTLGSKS

[6] = target: ECD1-nuc after phosphorylation by Src kinase (phosphate on Tyr-30) (human); experiment: SPR; ECD1-nuc (Tyr-54 of nuclease removed) immobilised as ligand, nuclease in the reference cell; 2C3 Fab as analyte; measured before and after phosphorylation on the chip by Src kinase; Biacore X100
[7] = target: ECD1-nuc with the phosphorylation site on Tyr-54 of nuclease removed, not phosphorylated (human); experiment: as above
[8] = target: T4, synthetic peptide DFEDVWNSSYG (residues 21-31 of ECD1 of DARC) (Homo sapiens); experiment: SPR; competition: 2C3 MAb (culture supernatant diluted 40 times) incubated 1 h at room temperature with the synthetic peptides, then injected over 2000 RU of immobilised WT ECD1-nuc (nuclease in the reference cell); RU read at 90 sec; Biacore X100, CM5, HBS-EP; the pair peptide and MAb; conditions: one partner purified
T4 construct: DARC (ACKR1), residues 21-31 of ECD1; also called non-sulfated peptide; source: synthetic peptide; bought: Cambridge Research Biochemicals
T4 chain: DFEDVWNSSYG

[9] = target: T5, full-length DARC without the glycosylation site at Asn-27 (Ser-29 replaced by Ala), on K562 cells (Homo sapiens, UniProt Q16570, S29A (printed as the sequence FEDVWNSAY), site N27 is not glycosylated); experiment: flow cytometry on cells; about 10^6 transfected K562 cells incubated 1 hour with 2C3 MAb culture supernatant in PBS-0.2% BSA, PE-conjugated secondary antibody; read-out is the ratio of % cells positive with 2C3 MAb to % positive with the anti-Fy^a antibody; cells with mean fluorescence above 10^2 counted as positive; conditions: partners not purified
T5 construct: DARC (ACKR1), full length, mutant; source: K562 cells, transfected, on cells

[10] = target: T6, Duffy Antigen Receptor for Chemokines (DARC), full-length consensus, expressed in K562 cells (Homo sapiens, UniProt Q16570, N-linked oligosaccharide chains (as made in K562 cells)); experiment: as above; conditions: partners not purified
T6 construct: also called ACKR1; DARC from K562 cells; source: K562 cells, transfected, selected with geneticin: on cells (flow cytometry); purified from the lysate on an immobilised anti-DARC nanobody, eluted with peptide DFEDVW (SPR)

[11] = target: T7, full-length DARC with Ser-29 and Tyr-30 replaced by Ala, on K562 cells (Homo sapiens (Human)., UniProt Q16570, S29A (printed as the sequence FEDVWNSAA) | Y30A (printed as the sequence …, site N27 is not glycosylated)); experiment: as above; conditions: partners not purified
T7 construct: DARC (ACKR1), full length, mutant; source: K562 cells, transfected, on cells

[12] = target: T8, full-length DARC with Tyr-30 replaced by Ala, on K562 cells (Homo sapiens, UniProt Q16570, Y30A (printed as the sequence FEDVWNSSA)); experiment: as above; conditions: partners not purified
T8 construct: DARC (ACKR1), full length, mutant; source: K562 cells, transfected, on cells

[13] = target: T9, full-length DARC with Trp-26 replaced by Phe, on K562 cells (Homo sapiens (Human)., UniProt Q16570, W26F (printed as the sequence FEDVFNSSY)); experiment: as above; conditions: partners not purified
T9 construct: DARC (ACKR1), full length, mutant; source: K562 cells, transfected, on cells

[14] = target: T10, full-length DARC with Tyr-30 replaced by Glu, on K562 cells (Homo sapiens, UniProt Q16570, Y30E (printed as the sequence FEDVWNSSE)); experiment: as above; conditions: partners not purified
T10 construct: DARC (ACKR1), full length, mutant; source: K562 cells, transfected, on cells

DFEDVWNSS[sY]G [synthetic sulfated peptide …(SO3H)G (residues 21-31 of ECD1 of DARC)]
IC50 [1]: 252 nM

B1: 2C3 Fab fragment (Fab, V domains shown)
VH: EVKLVESGGDLVQPGGSLKLSCAASGMTFSSYGMSWVRQTPDKRLELVASINRNGGSTYYPDSVKGRFTISRDNAKNTLYLQMSSLKSEDTAMYFCVRAGDYLSMDYWGQGTSVTVSS
VL: ELVMTQTPLSLPVSLGDQASISCRTSQSLLHSNGNTYLHWYLQKPGQSPKLLIYKVPNRFSGVPDRFSGSGSGTDFTLRITRVEAEDLGVYFCSQSTHVYTFGGGTKLEIK
notes: variable region of the heavy chain, as the VH of m1; CH1 part of the Fab; variable region of the light chain, as the VL of m1; light chain constant domain of the Fab; Cloned by PCR from total RNA of the hybridoma into pComb3H; also called 2C3-derived Fab; source: E. coli (pComb3H vector), purified
Kd [2]: 93 nM | fold lower affinity than 2C3 MAb (ELISA) [3]: ~2 fold | Kd [4]: 0.0283 nM | koff [4]: 0.000276 s⁻¹ | kon [4]: 9.75e+06 M⁻¹ s⁻¹ | Kd [5]: 0.263 nM | koff [5]: 0.000547 s⁻¹ | kon [5]: 2.08e+06 M⁻¹ s⁻¹ | Kd [6]: 0.459 nM | koff [6]: 0.000777 s⁻¹ | kon [6]: 1.69e+06 M⁻¹ s⁻¹ | Kd [7]: 14.2 nM | koff [7]: 0.000766 s⁻¹ | kon [7]: 53900 M⁻¹ s⁻¹

B2: murine anti-Fy6 monoclonal antibody 2C3 (clone name NaM185-2C3) (antibody, V domains shown)
VH: EVKLVESGGDLVQPGGSLKLSCAASGMTFSSYGMSWVRQTPDKRLELVASINRNGGSTYYPDSVKGRFTISRDNAKNTLYLQMSSLKSEDTAMYFCVRAGDYLSMDYWGQGTSVTVSS
VL: ELVMTQTPLSLPVSLGDQASISCRTSQSLLHSNGNTYLHWYLQKPGQSPKLLIYKVPNRFSGVPDRFSGSGSGTDFTLRITRVEAEDLGVYFCSQSTHVYTFGGGTKLEIK
notes: variable region of the heavy chain; murine heavy chain constant region; variable region of the light chain; murine light chain constant region; Whole murine antibody; The variable regions were cloned from the hybridoma for the Fab; also called 2C3 MAb; MAb 2C3; source: 2C3-producing hybridoma
IC50 [8]: 410 ± 40 nM | Kd [2]: 1.1 nM | ratio of % cells positive with 2C3 MAb to % cells positive with anti-Fy^a MAb [9]: 0.97 ± 0.04 | ratio of % cells positive with 2C3 MAb to % cells positive with anti-Fy^a MAb [10]: 0.97 ± 0.07 | ratio of % cells positive with 2C3 MAb to % cells positive with anti-Fy^a MAb [11]: 0.95 ± 0.03 | ratio of % cells positive with 2C3 MAb to % cells positive with anti-Fy^a MAb [12]: 0.75 ± 0.03 | ratio of % cells positive with 2C3 MAb to % cells positive with anti-Fy^a MAb [13]: 0.19 ± 0.02 | ratio of % cells positive with 2C3 MAb to % cells positive with anti-Fy^a MAb [14]: 1.16 ± 0.09

From article PMC4338028, “Studies of a Murine Monoclonal Antibody Directed against DARC: Reappraisal of Its Specificity” (PLoS ONE, 2015)
